From patent US20210054077A1 (AMUNIX PHARMACEUTICALS, published 2021)
Changes are numbered by the printed parent chain. Each block holds one binder with its values, some of them ahead of it.

Tests used:
[1] = target: T1, Cyno CD3 ϵ -Fc (cynomolgus monkey, UniProt Q95LI5 22-117); assay: BLI (ForteBio Octet Red); target-Fc loaded on anti-human Fc biosensor, AC2275 as analyte 1010 nM to 16 nM
T1 construct: also called cynomolgus monkey CD3; not shown: Fc part, captured on anti-human Fc biosensors
T1 sequence (looked up): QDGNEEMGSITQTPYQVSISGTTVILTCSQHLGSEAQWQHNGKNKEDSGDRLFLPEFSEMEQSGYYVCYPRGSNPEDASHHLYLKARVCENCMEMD

[2] = target: T2, Human CD3 ϵ -Fc (human, UniProt P07766 23-126); assay: as above
T2 construct: not shown: Fc part, captured on anti-human Fc biosensors
T2 sequence (P07766 23-126): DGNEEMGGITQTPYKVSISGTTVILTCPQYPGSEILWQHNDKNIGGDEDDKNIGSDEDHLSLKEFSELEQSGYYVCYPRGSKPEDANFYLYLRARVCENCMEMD

[3] = target: human HER2 on cells (HER2 positive human carcinoma cells; CT26-huHER2 transfected cells; human cardiomyocytes) (human, UniProt P04626 23-1255); assay: cell-based or functional assay
[4] = target: human HER2 on cells (HER2 positive human carcinoma cells; CT26-huHER2 transfected cells; human cardiomyocytes) (human) (UniProt P04626); assay: cell-based or functional assay
[5] = target: Biotinylated CD3CEµ antigen (Creative Biomart); assay: BLI (ForteBio BLItz); biotinylated CD3 antigen on streptavidin biosensor, scFv dilution series in solution
Sequence of Biotinylated CD3CEµ antigen (Creative Biomart) (P07766 23-126): as above

B1: AC2275, bivalent anti-HER2, anti-CD3 XTENylated binder (HER2-XPAT of Example 24) (bispecific antibody)
chain: HHHHHHSPAGSPTSTEEGTSESATPESGPGTSTEPSEGSAPGTSESATPESGPGSEPATSGSETPGTSESATPESGPGSEPATSGSETPGTSESATPESGPGTSTEPSEGSAPGSPAGSPTSTEEGTSESATPESGPGSEPATSGSETPGTSESATPESGPGSPAGSPTSTEEGSPAGSPTSTEEGTSTEPSEGSAPGTSESATPESGPGTSESATPESGPGTSESATPESGPGSEPATSGSETPGSEPATSGSETPGSPAGSPTSTEEGTSTEPSEGSAPGTSTEPSEGSAPGGSAPEAGRSANHTPAGLTGPATSGSETPGTDIQMTQSPSSLSASVGDRVTITCKASQDVSIGVAWYQQKPGKAPKLLIYSASYRYTGVPSRFSGSGSGTDFTLTISSLQPEDFATYYCQQYYIYPYTFGQGTKVEIKGATPPETGAETESPGETTGGSAESEPPGEGEVQLVESGGGLVQPGGSLRLSCAASGFTFTDYTMDWVRQAPGKGLEWVADVNPNSGGSIYNQRFKGRFTLSVDRSKNTLYLQMNSLRAEDTAVYYCARNLGPSFYFDYWGQGTLVTVSSGGGGSELVVTQEPSLTVSPGGTVTLTCRSSNGAVTSSNYANWVQQKPGQAPRGLIGGTNKRAPGTPARFSGSLLGGKAALTLSGVQPEDEAVYYCALWYPNLWVFGGGTKLTVLGATPPETGAETESPGETTGGSAESEPPGEGEVQLLESGGGIVQPGGSLKLSCAASGFTFNTYAMNWVRQAPGKGLEWVARIRSKYNNYATYYADSVKDRFTISRDDSKNTVYLQMNNLKTEDTAVYYCVRHENFGNSYVSWFAHWGQGTLVTVSSGTAEAASASGEAGRSANHTPAGLTGPPGSPAGSPTSTEEGTSESATPESGPGTSTEPSEGSAPGSPAGSPTSTEEGTSTEPSEGSAPGTSTEPSEGSAPGTSESATPESGPGSEPATSGSETPGSEPATSGSETPGSPAGSPTSTEEGTSESATPESGPGTSTEPSEGSAPGTSTEPSEGSAPGSPAGSPTSTEEGTSTEPSEGSAPGTSTEPSEGSAPGTSESATPESGPGTSTEPSEGSAPGTSESATPESGPGSEPATSGSETPGTSTEPSEGSAPGTSTEPSEGSAPGTSESATPESGPGTSESATPESGPGSPAGSPTSTEEGTSESATPESGPGSEPATSGSETPGTSESATPESGPGTSTEPSEGSAPGTSTEPSEGSAPGTSTEPSEGSAPGTSTEPSEGSAPGTSTEPSEGSAPGTSTEPSEGSAPGSPAGSPTSTEEGTSTEPSEGSAPGTSESATPESGPGSEPATSGSETPGTSESATPESGPGSEPATSGSETPGTSESATPESGPGTSTEPSEGSAPGTSESATPESGPGSPAGSPTSTEEGSPAGSPTSTEEGSPAGSPTSTEEGTSESATPESGPGTSTEPSEGSAPGAAEPEA
notes: also called HER2-XPAT 2275
Kd [1]: 170 nM
Kd [2]: 111 nM
EC50, % CD69+ T cells in human PBMC co-cultured with SK-OV-3 cells (flow cytometry) [3]: 3.63 nM
IC50, T-cell directed cytotoxicity (CellTiter-Glo ATP assay), BT474 cells with human PBMC [3]: 1360 pM
IC50, T-cell directed cytotoxicity (CellTiter-Glo ATP assay), MCF7 cells with human PBMC [3]: > 26.7 nM
IC50, T-cell directed cytotoxicity (CellTiter-Glo ATP assay), SKOV3 cells with human PBMC [3]: 15.3 nM

B2: pJB0244, masked anti-HER2 x anti-CD3 bispecific antigen binding polypeptide with two XTEN and two RSR2295 release segments (bispecific antibody, part only; not given: AE868 XTEN, scFv linker, not shown: small tags and cut ends)
chain, part: HHHHHHSPAGSPTSTEEGTSESATPESGPGTSTEPSEGSAPGTSESATPESGPGSEPATSGSETPGTSESATPESGPGSEPATSGSETPGTSESATPESGPGTSTEPSEGSAPGSPAGSPTSTEEGTSESATPESGPGSEPATSGSETPGTSESATPESGPGSPAGSPTSTEEGSPAGSPTSTEEGTSTEPSEGSAPGTSESATPESGPGTSESATPESGPGTSESATPESGPGSEPATSGSETPGSEPATSGSETPGSPAGSPTSTEEGTSTEPSEGSAPGTSTEPSEGSAPGGSAPEAGRSANHTPAGLTGPDIQMTQSPSSLSASVGDRVTITCKASQDVSIGVAWYQQKPGKAPKLLIYSASYRYTGVPSRFSGSGSGTDFTLTISSLQPEDFATYYCQQYYIYPYTFGQGTKVEIKGATPPETGAETESPGETTGGSAESEPPGEGEVQLVESGGGLVQPGGSLRLSCAASGFTFTDYTMDWVRQAPGKGLEWVADVNPNSGGSIYNQRFKGRFTLSVDRSKNTLYLQMNSLRAEDTAVYYCARNLGPSFYFDYWGQGTLVTVSSELVVTQEPSLTVSPGGTVTLTCRSSNGAVTSSNYANWVQQKPGQAPRGLIGGTNKRAPGTPARFSGSLLGGKAALTLSGVQPEDEAVYYCALWYPNLWVFGGGTKLTVLGATPPETGAETESPGETTGGSAESEPPGEGEVQLLESGGGIVQPGGSLKLSCAASGFTFNTYAMNWVRQAPGKGLEWVARIRSKYNNYATYYADSVKDRFTISRDDSKNTVYLQMNNLKTEDTAVYYCVRHENFGNSYVSWFAHWGQGTLVTVSSEAGRSANHTPAGLTGP
EC50 (pM), cytotoxicity (Caspase-Glo 3/7), BT-474 cells with human PBMC [4]: 66000 pM
EC50 (pM), cytotoxicity (Caspase-Glo 3/7), SK-Br3 cells with human PBMC [4]: 19500 pM
EC50 (pM), cytotoxicity (Caspase-Glo 3/7), SKOV-3 cells with human PBMC [4]: 14100 pM

B6: CD3.26 scFv (scFv)
scFv: ELVVTQEPSHTVSPGGTVTLTCRSSTGEVTTSNYANWVQQKPGQAPRGLIGGTIKRAPGTPARFSGSLLGGKAALTLSGVQPEDEAEYYCALWYPNLWVFGGGTKLTVLGATPPETGAETESPGETTGGSAESEPPGEGEVQLLESGGGIVQPGGSLKLSCAASGFTFNTYAMNWVRQAPGKGLEWVARIRSKYNNYATYYADSVKDRFTISRDDSKNTVYLQMNNLKTEDTAVYYCVRHENFGNSYVSWFAHWGQGTLVTVSS
Kd [5]: 221 nM

B7: CD3.24 scFv (scFv)
scFv: B6 scFv with H10L, T26N, E87V
Kd [5]: 296 nM

The next lines start with the values.

Kd [5]: 75 nM
B3: CD3.9 scFv (scFv)
scFv: B6 scFv with H10L, E28A, I54N, P95S, I150L, V220A, E241G, H253Y

Kd [5]: 175 nM
B4: CD3.23 scFv (scFv)
scFv: B6 scFv with H10L, T26N, E28A, T31S, I54N, E87V

Kd [5]: 215 nM
B5: CD3.25 scFv (scFv)
scFv: B6 scFv with E28A, T31S
